Experimental findings from IntAct's records for PubMed 17964261 are described below.

To fix the notation:
B1: Proline-serine-threonine phosphatase-interacting protein 1 (Homo sapiens), O43586 (parent)
chain: MMPQLQFKDAFWCRDFTAHTGYEVLLQRLLDGRKMCKDMEELLRQRAQAEERYGKELVQIARKAGGQTEINSLRASFDSLKQQMENVGSSHIQLALTLREELRSLEEFRERQKEQRKKYEAVMDRVQKSKLSLYKKAMESKKTYEQKCRDADDAEQAFERISANGHQKQVEKSQNKARQCKDSATEAERVYRQSIAQLEKVRAEWEQEHRTTCEAFQLQEFDRLTILRNALWVHSNQLSMQCVKDDELYEEVRLTLEGCSIDADIDSFIQAKSTGTEPPAPVPYQNYYDREVTPLTSSPGIQPSCGMIKRFSGLLHGSPKTTSLAASAASTETLTPTPERNEGVYTAIAVQEIQGNPASPAQEYRALYDYTAQNPDELDLSAGDILEVILEGEDGWWTVERNGQRGFVPGSYLEKL
partner: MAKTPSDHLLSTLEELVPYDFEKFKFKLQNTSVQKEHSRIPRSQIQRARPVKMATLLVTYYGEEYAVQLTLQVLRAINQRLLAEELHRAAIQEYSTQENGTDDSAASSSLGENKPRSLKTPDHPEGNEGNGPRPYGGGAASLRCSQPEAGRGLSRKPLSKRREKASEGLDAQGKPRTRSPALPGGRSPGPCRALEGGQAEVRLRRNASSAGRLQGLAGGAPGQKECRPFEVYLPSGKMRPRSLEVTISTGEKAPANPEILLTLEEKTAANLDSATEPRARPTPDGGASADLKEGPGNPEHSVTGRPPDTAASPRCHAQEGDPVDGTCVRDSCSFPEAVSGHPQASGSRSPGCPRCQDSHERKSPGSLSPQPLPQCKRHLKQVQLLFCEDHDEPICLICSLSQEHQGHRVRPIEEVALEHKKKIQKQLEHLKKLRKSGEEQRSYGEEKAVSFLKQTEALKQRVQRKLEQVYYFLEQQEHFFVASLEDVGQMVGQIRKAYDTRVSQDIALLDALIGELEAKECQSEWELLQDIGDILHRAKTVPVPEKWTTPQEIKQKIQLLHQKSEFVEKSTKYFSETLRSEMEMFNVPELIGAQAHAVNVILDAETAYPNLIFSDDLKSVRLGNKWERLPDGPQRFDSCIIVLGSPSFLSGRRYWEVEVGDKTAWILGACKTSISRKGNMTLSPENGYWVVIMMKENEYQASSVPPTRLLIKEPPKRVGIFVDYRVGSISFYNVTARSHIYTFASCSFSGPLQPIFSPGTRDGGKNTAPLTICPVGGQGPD

Variants of B1 are the subject of the experiment. The note with it: with mefv_human MEFV.
As to A230T, the “effect of a mutation on the interaction” value was “increasing interaction strength”.

Turning to E250Q, the “effect of a mutation on the interaction” value is given as “increasing interaction strength”.
